Read-outs that look alike come from different tables or passages of the source. Values belong to the binder of their own block, whether it stands above or below them.
Legend:
[1] = target: T1, 4H968-bH; assay: two-hybrid library CCNG1;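 further: natural log of median RNA to DNA barcode read ratio; higher means stronger binding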
T1 chain: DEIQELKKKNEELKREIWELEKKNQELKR

[2] = target: T2, 4H717-bA; assay: two-hybrid library CCNG1;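 further: natural log of median RNA to DNA barcode read ratio; higher means stronger binding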
T2 chain: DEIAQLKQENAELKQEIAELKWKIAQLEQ

[3] = target: T3, 4H72-bA; assay: two-hybrid library CCNG1;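 further: natural log of median RNA to DNA barcode read ratio; higher means stronger binding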
T3 chain: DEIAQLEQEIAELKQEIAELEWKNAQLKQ

[4] = target: T4, 4H754-bA; assay: two-hybrid library CCNG1;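 further: natural log of median RNA to DNA barcode read ratio; higher means stronger binding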
T4 chain: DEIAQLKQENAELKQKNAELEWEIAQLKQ

[5] = target: T5, 4H797-bA; assay: two-hybrid library CCNG1
T5 chain: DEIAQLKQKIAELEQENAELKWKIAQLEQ

[6] = target: T6, 4H883-bA; assay: two-hybrid library CCNG1
T6 chain: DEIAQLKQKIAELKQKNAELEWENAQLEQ

[7] = target: T7, 4H908-bA; assay: two-hybrid library CCNG1
T7 chain: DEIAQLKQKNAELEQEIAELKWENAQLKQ

[8] = target: T8, 4H918-bA; assay: two-hybrid library CCNG1
T8 chain: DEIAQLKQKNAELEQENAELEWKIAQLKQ

[9] = target: T9, 4H953-bA; assay: two-hybrid library CCNG1
T9 chain: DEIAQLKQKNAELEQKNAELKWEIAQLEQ

[10] = target: T10, 4H967-bA; assay: two-hybrid library CCNG1
T10 chain: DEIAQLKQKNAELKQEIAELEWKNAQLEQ

[11] = target: T11, 4H607-bA; assay: two-hybrid library CCNG1
T11 chain: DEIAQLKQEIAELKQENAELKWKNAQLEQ

[12] = target: T12, 4H687-bA; assay: two-hybrid library CCNG1
T12 chain: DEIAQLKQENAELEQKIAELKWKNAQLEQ

[13] = target: T13, 4H953-bH; assay: two-hybrid library CCNG1
T13 chain: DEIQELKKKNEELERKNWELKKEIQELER

[14] = target: T14, 4H3777-AA; assay: two-hybrid library CCmax
T14 chain: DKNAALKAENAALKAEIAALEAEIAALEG

[15] = target: T15, 4H380-AA; assay: two-hybrid library CCmax
T15 chain: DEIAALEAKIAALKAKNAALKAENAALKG

[16] = target: T16, 4H3915-AA; assay: two-hybrid library CCmax; settings: mean of both orientations
T16 chain: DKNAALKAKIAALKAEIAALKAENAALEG

[17] = target: T17, 4H3974-AA; assay: two-hybrid library CCmax; settings: mean of both orientations
T17 chain: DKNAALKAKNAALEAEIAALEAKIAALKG

[18] = target: T18, 4H432-AA; assay: two-hybrid library CCmax; settings: mean of both orientations
T18 chain: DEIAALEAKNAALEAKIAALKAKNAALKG

[19] = target: T19, 4H446-AA; assay: two-hybrid library CCmax; settings: mean of both orientations
T19 chain: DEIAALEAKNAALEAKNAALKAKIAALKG

[20] = target: T20, 4H63-AA; assay: two-hybrid library CCmax; settings: mean of both orientations
T20 chain: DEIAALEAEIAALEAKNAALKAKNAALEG

[21] = target: T21, APC8401-AA; assay: two-hybrid library CCmax
T21 chain: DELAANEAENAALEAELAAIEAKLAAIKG

[22] = target: T22, APC8516-AA; assay: two-hybrid library CCmax; settings: mean of both orientations
T22 chain: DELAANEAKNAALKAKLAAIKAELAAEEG

[23] = target: T23, APC9141-AA; assay: two-hybrid library CCmax; settings: mean of both orientations
T23 chain: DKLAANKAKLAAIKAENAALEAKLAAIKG

[24] = target: T24, APC9182-AA; assay: two-hybrid library CCmax; settings: mean of both orientations
T24 chain: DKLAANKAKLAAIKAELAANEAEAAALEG

[25] = target: T25, APC9291-AA; assay: two-hybrid library CCmax; settings: mean of both orientations
T25 chain: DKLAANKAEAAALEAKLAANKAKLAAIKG

[26] = target: T26, APC9806-AA; assay: two-hybrid library CCmax; settings: mean of both orientations
T26 chain: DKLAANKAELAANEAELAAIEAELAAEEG

[27] = target: T27, 4H3588-AA; assay: two-hybrid library CCmax
T27 chain: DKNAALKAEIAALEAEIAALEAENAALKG

[28] = target: T28, 4H3606-AA; assay: two-hybrid library CCmax; settings: mean of both orientations
T28 chain: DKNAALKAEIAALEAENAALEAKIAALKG

[29] = target: T29, 4H3631-AA; assay: two-hybrid library CCmax; settings: mean of both orientations
T29 chain: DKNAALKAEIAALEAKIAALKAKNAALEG

[30] = target: T30, 4H3697-AA; assay: two-hybrid library CCmax; settings: mean of both orientations
T30 chain: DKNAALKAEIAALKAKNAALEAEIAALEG

[31] = target: T31, 4H3718-AA; assay: two-hybrid library CCmax; settings: mean of both orientations
T31 chain: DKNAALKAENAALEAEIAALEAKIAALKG

[32] = target: T32, 4H384-AA; assay: two-hybrid library CCmax; settings: mean of both orientations
T32 chain: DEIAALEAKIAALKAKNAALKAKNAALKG

[33] = target: T33, 4H3865-AA; assay: two-hybrid library CCmax; settings: mean of both orientations
T33 chain: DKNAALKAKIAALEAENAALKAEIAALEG

[34] = target: T34, 4H697-AA; assay: two-hybrid library CCmax; settings: mean of both orientations
T34 chain: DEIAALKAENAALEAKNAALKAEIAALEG

[35] = target: T35, 4H982-AA; assay: two-hybrid library CCmax; settings: mean of both orientations
T35 chain: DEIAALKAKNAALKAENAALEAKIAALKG

[36] = target: T36, 4H967-bH; assay: two-hybrid library CCNG1
T36 chain: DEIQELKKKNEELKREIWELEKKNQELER

[37] = target: T37, 4H3629-AA; assay: two-hybrid library CCmax
T37 chain: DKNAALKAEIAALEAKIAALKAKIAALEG

[38] = target: T38, 4H3782-AA; assay: two-hybrid library CCmax; settings: mean of both orientations
T38 chain: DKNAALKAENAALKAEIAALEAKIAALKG

[39] = target: T39, 4H3939-AA; assay: two-hybrid library CCmax; settings: mean of both orientations
T39 chain: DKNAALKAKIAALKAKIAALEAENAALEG

[40] = target: T40, 4H3969-AA; assay: two-hybrid library CCmax; settings: mean of both orientations
T40 chain: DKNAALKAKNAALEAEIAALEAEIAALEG

[41] = target: T41, 4H464-AA; assay: two-hybrid library CCmax; settings: mean of both orientations
T41 chain: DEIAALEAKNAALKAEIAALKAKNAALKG

[42] = target: T42, 4H483-AA; assay: two-hybrid library CCmax; settings: mean of both orientations
T42 chain: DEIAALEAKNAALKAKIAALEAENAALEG

[43] = target: T43, 4H452-AA; assay: two-hybrid library CCmax
T43 chain: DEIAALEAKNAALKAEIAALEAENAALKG

[44] = target: T44, 4H56-AA; assay: two-hybrid library CCmax
T44 chain: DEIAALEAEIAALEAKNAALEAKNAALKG

[45] = target: T45, 4H_APH; assay: two-hybrid library CCmax
T45 chain: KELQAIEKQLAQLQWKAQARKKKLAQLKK

[46] = target: T46, 4H_BCR; assay: two-hybrid library CCmax; settings: mean of both orientations
T46 chain: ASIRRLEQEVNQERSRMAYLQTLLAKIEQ

[47] = target: 4H_GCN4; assay: two-hybrid library CCmax
Sequence of 4H_GCN4 (chain, as listed by the source): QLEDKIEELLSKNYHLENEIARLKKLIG

[48] = target: GCN2_T; assay: two-hybrid library CCmax
[49] = target: T47, APC9319-AA; assay: two-hybrid library CCmax
T47 chain: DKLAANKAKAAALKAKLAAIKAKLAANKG

Binder: DEIAQLKQENAELKQEIAELKWKIAQLEQ [4H717-bA]
interaction score [2]: 0.924
interaction score [3]: 0.154
interaction score [4]: -0.36
interaction score [5]: -1.13
interaction score [6]: -1.09
interaction score [7]: 0.244
interaction score [8]: -0.185
interaction score [9]: -0.433
interaction score [10]: -0.574

Binder: DEIAQLKQEIAELKQENAELKWKNAQLEQ [4H607-bA]
interaction score [11]: 0.454
interaction score [12]: -0.84
interaction score [2]: -0.469
interaction score [3]: -0.746
interaction score [4]: -0.503
interaction score [5]: -0.394
interaction score [6]: -1.28
interaction score [7]: -0.62
interaction score [8]: -1.07
interaction score [9]: -0.667
interaction score [13]: -1.41
interaction score [10]: -1.29

Binder: DEIQELKKKNEELERKNWELKKEIQELER [4H953-bH]
interaction score [13]: -0.129
interaction score [36]: -0.919
interaction score [1]: -1.63

Binder: DEIAALEAKIAALKAKNAALKAENAALKG [4H380-AA]
interaction score [15]: -0.176
interaction score [16]: 0.315
interaction score [39]: 0.0894
interaction score [40]: -1.28
interaction score [17]: -0.717
interaction score [18]: -1.71
interaction score [19]: -1.43
interaction score [41]: -1.6
interaction score [42]: -1.15
interaction score [20]: -0.855

Binder: DEIAALEAKNAALKAEIAALEAENAALKG [4H452-AA]
interaction score [43]: -0.395
interaction score ([44]; mean of both orientations): -1.4
interaction score [45]: -1.91
interaction score [46]: -1.94
interaction score [47]: -0.935
interaction score [48]: -0.726

Binder: DEIAALEAEIAALEAKNAALEAKNAALKG [4H56-AA]
interaction score [44]: -0.981
interaction score ([45]; mean of both orientations): -1.29
interaction score [46]: -1.53
interaction score [47]: -1.92
interaction score [48]: -1.38

Next, values leading:

interaction score [1]: 0.196
Binder: DEIQELKKKNEELKREIWELEKKNQELKR [4H968-bH]

interaction score [14]: -0.62
interaction score ([15]; mean of both orientations): -1.42
interaction score [16]: -0.495
interaction score [17]: -0.511
interaction score [18]: -1.01
interaction score [19]: -0.779
interaction score [20]: -1.54
Binder: DKNAALKAENAALKAEIAALEAEIAALEG [4H3777-AA]

interaction score [21]: -1.51
interaction score [22]: -1.57
interaction score [23]: -1.49
interaction score [24]: -1.43
interaction score [25]: -1.42
interaction score [26]: -1.46
Binder: DELAANEAENAALEAELAAIEAKLAAIKG [APC8401-AA]

interaction score [27]: -1.05
interaction score [28]: -1.57
interaction score [29]: -0.285
interaction score [30]: -2.28
interaction score [31]: 0.71
interaction score [32]: 1.38
interaction score [33]: -1.15
interaction score [34]: -1.44
interaction score [35]: -1.37
Binder: DKNAALKAEIAALEAEIAALEAENAALKG [4H3588-AA]

interaction score [37]: 1.82
interaction score ([14]; mean of both orientations): -0.576
interaction score [38]: -0.119
interaction score ([15]; mean of both orientations): -1.46
interaction score [16]: -0.761
interaction score [39]: -0.964
interaction score [40]: -1.01
interaction score [17]: 0.236
interaction score [18]: -2.37
interaction score [19]: -1.96
interaction score [41]: -1.75
interaction score [42]: -1.87
interaction score [20]: -0.266
Binder: DKNAALKAEIAALEAKIAALKAKIAALEG [4H3629-AA]

interaction score [49]: -1.58
Binder: DKLAANKAKAAALKAKLAAIKAKLAANKG [APC9319-AA]

Source: PMC10397247
